Test results reported in the nanobody polyreactivity screen of Harvey et al. (2022).

Experiment: yeast display, Sf9 membrane polyspecificity reagent, FACS + sequencing; frameworks hold sequencing errors
Summary of the method: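 Nanobodies came from a synthetic yeast display library in Saccharomyces cerevisiae BJ5465, induced with galactose for 36–48 hours and stained for 1 hour at 4 °C with 10% biotinylated, detergent-solubilized Sf9 membrane reagent. Cells were enriched on streptavidin microbeads and then FACS-sorted, with low and high (top ~1%) gates set on anti-HA fluorescence for expression and streptavidin fluorescence for reagent binding. Each polyreactivity label reflects the gate a clone came from. Genes were amplified by colony PCR, sequenced by MiSeq 2 × 250 and filtered by CDR length.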

| Sequence | polyreactivity (PSR sort gate) |
| --- | --- |
| QVQLVESGGGLVQAGGSIRLSCAASGFTITHYAMGWYRQAPGKERELVAAISASGGSTYYADSVKGRFTISRDNAKYTVYVQMNSLKPEDTAVYYCAATWDYRRGRYPYDYWGQGTQVTVSS | high polyreactivity |
| QVQLVESGGGLVQAGGSLRLSCAASGSTLGVNAMGWYRQAPGKEREFVAAITGRGGNTYYADSVKGRFTISRDNAKNTVYLQMNSLTPEDTAVYYCAARDKYTRYQSILDYYYWGQGTQVTVSS | high polyreactivity |
| QVQLVESGGGLVQAGASLRLSCAASGRIFRNYAMGWYRQAPGKERELVAAISSSGGSTYYADSVKGRFTISRDIAKNTVYFQMNSLKPEDTAVYYCAAVARVRGRGDYWGQGSQVTVSS | high polyreactivity |
| QVQLVESGGGLVQAGGSLRLSCAASGRTLGGYTMGWYRQAPGKEREVVAGISFRGDSTYYADSVKGRFTLSRANAKNTVYLQMNSLKPEDTAVYYCNARGTPWRYGGDYWGQGTQVTVSS | low polyreactivity |
| QVQLVESGGGLVQAGGSLRLSCSASGFIFGPNAMGWYRQAPGKEMELVAAISWMGSSTYYADSVKGRFTISRDNANNTVYLQMNSLKPEDTAVYYCAADSSERRLLDFDYWGQGTNVTVSS | low polyreactivity |
| QVQLVETGGGLVQAGGSLRLSCAASGSTVRFNAMGWYRQAPGKERELVAVIRWRGGTTYYADSVKGRFTISRDNAKNTVYLQMNSLKPVDTAVYYCNADYWFSYTWHGSYTVGYWGQGTQVTVSS | high polyreactivity |
| QVQHVESGGGLVQAGGSRRLSCAASGSIFFYAMGWYRQAPAKERVLVAAITSAGSTNFADSVKGRFTISRDNAKNTVYLQMYSLKPEDTAVYYCAAGYVGYSWSYPYGWVEYDYWGQGTQVTVSS | high polyreactivity |
| QVQLVESGGGLVQAGGSLRLSCAASGRTLEDYVMGWYRQAPGKERELVAAISWSGVSTYYADSVKGRFTISRDNEKNTVYLQMNSLKPEDTAVYYCAKDSTADELTGFDYWGQGTQVNVSS | low polyreactivity |
| QVQLVESGGGLVQAGGSLRLSCAASGRTISVYGMGWYRQAPGKERELVASIPWRGGTTYYADSVKGRFTISRDNAKNTVYLQMNSLKPEDTAVYYCAIEPFRFRYYYWGQGTQVTVSS | high polyreactivity |
| QVQLVESGGGLVQAGGSLRLSCAGSGSTFPRYPMGWYRQAPGKERELVAAISYSGGRTYYADSVKGRFTISRDYAKNTVYLQMNSLKAEDTAVYYCKKRWRGAGTSYDYWGQGTQGTVSS | high polyreactivity |
| QFQLVESGGGLVQAGGSLRLSCAASGSTFWVYAMGWYRQAPGKERDLVAAITFRTTSTYYADSVKGRFTISRDTAKNSVSLQLKSLIPDDNAVYFCAATEYYATEYDYWGQCTQVTVSS | low polyreactivity |
| QVQLVESGGGLVQAGGSLRLSCAASGITFPGYAMGSYRQAPGKERELVAVIRKSGTSTYYADSVKGRFTISRDNAKNTVYLQMNSLKPEDTAVYYCAAGGPSTLDDYWGQGTQVTVSS | low polyreactivity |
| QVQLVESGGGLVQAGGSLRLSCAASGRIFYRYSMGWYRQAPGKERELVAGISSGGRTNYADSVKGRFTISRDNAKNTVYLQMNSLKPEDTAVYYCNKARSRWSDARSSFGYDYWGQGTQVTVSS | low polyreactivity |
| QVQLVESGGGLVQAGGSLRLSCAASGRIFHWYAMGWYRQAPGKERELVATANTSYADSVKGRFTISRDNAKNTVYLQMNSLKPEDTALYYCATVGPRGRSLGDYWGQGTQVTVSS | low polyreactivity |
| QVQLVESGGGLVQAGGSLRLSCAASGSIFGYNTMGRYRQAPGKERELVAAISYRGGSTYADSVKGRFTISRDNAKNTVYLQMNSLKPEDTAVYYCAKRSIVGYRYSGYDYWGQGTQVTVSS | high polyreactivity |
| QVQLVESGGGLVQAGGSLRLSCAASGITFRVNAMGWYRQAPGKERELVAAISQIGGSTYYADSVKGRFTISRDNAKNTVYLQMNSLKPEDTAVYYCAARRRWYNYNYWGQGTQVTVSS | high polyreactivity |
| QVQLVESGGCLVQAGGSLRLSCAASGCTFVSNAMGWSRQAPGKERELVAAINGSGGITYYADSVKGRFTISRDNAKNTVYFQMNSLKPEDTAVYYCAAEVLYWRGYYNYWGQGTQVTVSS | low polyreactivity |
| QVQLVESGGGLVQAGGSLRLSCAASGRIFNYAMGWYRQAPGKERELVAAISRGGGRTYYADSVKGRFTISRDNAKNTVYLQMNSLKPEDTAVYYCAADLSPEYDYWGQGTQVTVSS | high polyreactivity |
| QVQLVESGGGLVQAGGSLRLSCAASGSTFTDYDMGWYRQAPGKERELVAAITSGGSTNYADSVKGRFTISRDNAKNTVYLQMNSLKPEDTAVYYCAAADADRKYDYWGQGTQVTVSS | low polyreactivity |
| QVQLVESGGGLVQAGGSLRLSCAASGFTFTYYAMGWYRQAPGKERELVAAISGNGGSTYYADSVKGRFTISRDNAKNTVYLQMNSLKPEDTAVYYCNALPKSVGRWYRGDYWGQGTQVTVSS | high polyreactivity |
| QVQLVESGGGLVQAGGSLRLSCAASGFTLISYDMGWYRPSPGKERELVAGISSGDSTDYADSVKGRFTISRDNAKNTVYLQMNSLKPEDTAVYYCAATWYGYYSRYDFYYWGQGTQVTVSS | low polyreactivity |
| QVQLVESGGGLVQAGGILRLSCAASGLIFKYNAMGWYRQAPGKERELVAAISTSGGSTYYADSVKGRFTISRDNAKNTVYLQMNSLKPEDTAVYYCNVAYIKTRLFRPYDYWGQGTQVTVSS | high polyreactivity |

| Sequence | polyreactivity (PSR sort gate) |
| --- | --- |
| QVQLVESGGGLVQAGGSLRLSCAASGFIIGFNAMGWYRQAPGKERELVAAISGSGGRTYYADSVKGRFTISRDNAKNTVYLQMNSLKPEDTAVYYCAKVGYKSPYLYSQHYTGFGYWGQGTQVTVSS | high polyreactivity |
| QVQLLESGGGLVQAGGSLRLSCAASGGTFYSYAMGWYRQAPGKEREFVATITRRSGSTYYADSVKGRFTISRDNAKNTVYLQMNSLKPEDNAVYYCAATKYKLLFIHFRYDYWGQGTQVTVSS | high polyreactivity |
| QDQLVESGGGLVQAGGSLRLSCAASGRIFIVYAMGWYRQAPGKERELDAAISRNGGRTYYADSVKGRFTISRDNAKNSVDLQMNSLKPEDTSVYYCNSVALYPYTTYDYWGQGSQVTVSS | high polyreactivity |
| QVQLVESGGGLVQAGGSLRLSCAASGLIFTRNAMGWYRQAPGKERELVATITWSGGRTYYADSVKGRFTISRDNAKNTVYLQMNSLKPEDTAVYYCAAASGPLTYTFFRNDYWGQGTQVTVSS | low polyreactivity |
| QVQLVESGGGLVQAGGSLRLSCAASGFIFDRYAMGWYRQAPGKERELVAVISKSGGRTYYADSVKGRFTISRDHAKNTVYLQMNSLKPEDTAVYYCAAYYKSTYVTGDYWGQGTQVTVSS | high polyreactivity |
| QVQLVESGGGLVQAGGSLRLSCAASGGIFSYYAMGWYRQAPGKEREFVAAIDWGGGSTYYADSVKGRFTISRDNAKNTVYLQMNSLKPEDTAVYYCAAEIYPIGWDDYDYWGQGTQVTVSS | low polyreactivity |
| QVQLVESGEGLVQAGGSLRLSCAASGSIFSLNAMGWYRQAPGKERELVAAISGRGGSTYYADSVKGRFTISRDNAKNTVYLQMNSLKPEDTAVYYCAARFSRTFLGYYYWGQGTQVTVSS | high polyreactivity |
| QVQLVESGGGLVQAGGSLRLSCAASGRIFYKNVMGWYRQAPGKESELVATITRRGGRTFYADSVKGRFTISRDNAKNTVYLQMNSLKPEDTAVYYCATRRRIRSSFYYDIDYWGQGTQVTVSS | high polyreactivity |
| QVQLVESGGGLVQAGGSLRLSCAASGSIFSSYAMGWDRQAPGKERELVAAISSGGGSTYYADSVKGRFTISRDNAKHTVYLQMNSLKPEDTAVYYCNAGKEALKTTYTYDYWGQGTQVTVSS | high polyreactivity |
| QVQLVESGGGLLHAGGSLRLSCAASGRIFWFYTMGWYRQAPGKERELVAAISDSAGSTYYADSVKGRFTISRDNAKYTVYVPMNSLKPEDTAVYYCDADGWWQYDYWGHGTQVTVSS | low polyreactivity |
| QVQLVESGGGLVQAGGSLRLSCAASGITFTPNAMGWYRQAPGKEREFVAAITYSGGSTYYADSVKGRFTISRDNAKNTVYLQMNSLKPEDTAVYYCAADSFAWWGSRYDYWGQGTQVTVSS | low polyreactivity |
| QVQLVESGGGLVQAGGRLRLSCAASGRIFVQYVMGWYRQAPGKERELVAAITGSDSTTYYADSVKGRFTISRDNAKNTVYLQMNSLKPEDTAVYYCNKDLWLQDDYWGQGTQVTVSS | low polyreactivity |
| QVQLVESGGGLVQAGGSLRLSSAASGRIFAHNAMGWSRQAPGKERELVAAITWSGGSTYYADSVKGRFTISRDNAKNTVYLQMNSLKPEDTAVYYCNTDSHGHLYIYWGQGNQVTVSS | low polyreactivity |
| QVQLVESGGGLVQAGGSLRLSCAASGRIFTIYAMGWYRQAPGKERELVATISRRGGSTYYADSVKGRFTISRDNAKNTVYLQMNSLKPEDTAVYYCAADSVITWWAYDYWGQGTQVTVSS | high polyreactivity |
| QVQLVESGGGLVQAGGSLRLSCAASGSIFSANAMGWYRQAPGKERELVAAITSGDSTKYADSVKGRFTISRDNAKNTVYLQMNSLKPEDTAVYYCAVDRGEYKNRVGEEYWGQGTQVTVSS | low polyreactivity |
| QVQLVESGGGLVQAGGSLRLSCAASGRTFELNAMGWYRQAPGKERELVAAISWSGGSTYYADSVKGRFTISRDNAKNTVYLQMNSLKPEDTAVYYCAAQYQQGPFVKYYYWGQGTQVTVSS | high polyreactivity |
| QVQLVESGGGLVQAGGSLRLSCAASGSTFNFNAMGWYRQAPRKERELVAAISSSGGSTYYADSVKGRFTISRDNAKNTVYLQMNSLKPEDTAVYYCATVRRKSPLYYYWGQGTQVTVSS | high polyreactivity |
| QVQLVESGGGLVQAGGRIRLTCAASGFTFKAYSMGCDRQAPGKERELVAAITKSGGRTFYADSVKGRFRISRDNAKNTVYLQMNSLKPEDTAVYYCAASYTVYYWGQGTQVTVSS | high polyreactivity |
| QVQLVESGGGLVQAGGRIRLSCAASGIIFYPYAMGWYRQAPGKERELVAGISSSGGSTYYADSVKGRFTISRDNAKNTVYLQMNSLKPEDTAVYYCAAVRISRTPRGLYEYWGQGTQVTVSS | high polyreactivity |
| QVQLVESGGGLVQAGGSLRLSCAASGRNFGAYTMGWYRQAPGKESELVAAISSSGGRTYYADSVKGRYTISRDNAKNTVYLQMNSLKPEDTAVYYCAASYSGRKDRYPHYDYWGQGTQVTVSS | low polyreactivity |
| QVQLVESGGGLVQAGGSLRLSCAASGSTFSIYGMGWYRQAPGKERELVAVITARDGSTYYADSVKGRFTISRDNAKNTVYLQMNSLKPEDTAVYYCAADIGPRYDSWGQGTQVTVSS | high polyreactivity |
